This note sets out measurements from US20060094101A1 (Pfizer, published 2006).

B1: Lamin (Clontech), yeast two-hybrid control bait (other, UniProt P04386 1-147, looked up)
chain: MKLLSSIEQACDICRLKKLKCSKEKPKCAKCLKNNWECRYSPKTKRSPLTRAHLTEVESRLERLEQLFLLIFPREDLDMILKMDSLQDIKALLTGLFVQDNVNKDAVTDRLASVETDMPLTLRQHRISATSSSEESSNKGQRQLTVSSEEVVSREVSGIKAAYEAELGDARKTLDSVAKERARLQLELSKVREEFKELKARNTKKEGDLIAAQARLKDLEALLNSKEAALSTALSEKRTLEGELHDLRGQVAKLEAALGEAKKQLQDEMLRRVDAENRLQTMKEELDFQKNIYSEELRETKRRHETRLVEID
notes: Specificity control bait; also called lamin (L)
B2: V5-tagged Shc (V5-p66 Shc A) (other, not shown: small tags and cut ends)
chain: MDLLPPKPKYNPLRNESLSSLEEGASGSTPPEELPSPSASSLGPILPPLPGDDSPLPCVPSFPRMSNLKLANPAGGPWGLKGSQERLLKMGKGVQGQPFGLRPLAPPPDMNKLSGGGGRRTRVEGGQLGGEEWTRHGSFVNKPTRGWLHPNDKVMGPGVSYLVRYMGCVEVLQSMRALDFNTRTQVTREAISLVCEAVPGAKGATRRRKPCSRPLSSILGRSNLKFAGMPITLTVSTSSLNLMAADCKQIIANHHMQSISFASGGDPDTAEYVAYVAKDPVNQRACHILECPEGLAQDVISTIGQAFELRFKQYLRNPPKLVTPHDRMAGFDGSAWDEEEEEPPDHQYYNDFPGKEPPLGGVVDMRLREGAARPTLPSAQMSSHLGATLPIGQHAAGDHEVRKQMLPPPPCPGRELFDDPSYVNIQNLDKARQAGGGAGPPNPSLNGSAPRDLFDMKPFEDALRVPPPPQSMSMAEQLQGEPWFHGKLSRREAEALLQLNGDFLVRESTTTPGQYVLTGLQSGQPKHLLLVDPEGVVRTKDHRFESVSHLISYHMDNHLPIISAGSELCLQQPVDRKV
B3: src homology and collagen (Shc; Shc A), yeast two-hybrid library clone (other, not shown: large carriers)
chain: B2 chain
notes: Clone from a pretransformed human bone marrow cDNA library
B4: p53, yeast two-hybrid control bait (other, UniProt P04386 1-147, looked up)
chain: MKLLSSIEQACDICRLKKLKCSKEKPKCAKCLKNNWECRYSPKTKRSPLTRAHLTEVESRLERLEQLFLLIFPREDLDMILKMDSLQDIKALLTGLFVQDNVNKDAVTDRLASVETDMPLTLRQHRISATSSSEESSNKGQRQLTVSPVTETPGPVAPAPATPWPLSSFVPSQKTYQGNYGFHLGFLQSGTAKSVMCTYSPPLNKLFCQLAKTCPVQLWVSATPPAGSRVRAMAIYKKSQHMTEVVRRCPHHERCSDGDGLAPPQHLIRVEGNLYPEYLEDRQTFRHSVVVPYEPPEAGSEYTTIHYKYMCNSSCMGGMNRRPILTIITLEDSSGNLLGRDSFEVRVCACPGRDRRTEEENFRKKEVLCPELPPGSAKRALPTCTSASPPQKKKPLDGEYFTLKIRGRKRFEMFRELNEALELKDAHATEESGDSRAHSSYLKTKKGQSTSRHKKTMVKKVGPDSD
notes: Specificity control bait
B5: human polyhomeotic 2 (HPH2), yeast two-hybrid library clone (other, not shown: large carriers)
chain: MCLRGGCSPRAPAAAPQPRPPPALPPRPRAPVPASRPGRPLLTPARPCGRMRRGSPGPRLGGSRGERRRPAGRDPARVGPGQGLRRPARPGPAAWTETGQGIVHALTDLSIPGMTSGNGNSASSIAGTAPQNGENKPPQAIVKPQILTHVIEGFVIQEGADVSRWDARLLVGNLKKKYAQGFLPEKLPQQDHTTTTDSEMEEPYLQESKEEGAPLKLKCELCGRVDFAYKFKRSKRFCSMACAKRYNVGCTKRVGLFHSDRSKLQKAGAATHNRRRPAKPVCHHLPRIPRSSQQALCPFRLLLLCVTHSQEDSSRCSDNSSYEEPLSPISASSSTSAGDKASGTWSSPTCICGTWWAWDTTSCQVSHQVNVEDVYEFIRSLPGCQEIAEEFRAQEIDGQALLLLKEDHLMSVMNIKLGPALKIYARISMLKDS
notes: Clone from a pretransformed human bone marrow cDNA library; also called human polyhomeotic homolog 2

For assay [1], the target named is T1, similar to smoothelin (STS), yeast two-hybrid library clone (yeast; human, UniProt P53814 2-868).
T1 construct: Clone from a pretransformed human bone marrow cDNA library
T1 sequence (P53814 other isoform, or with tags, fused parts or gaps limits assumed): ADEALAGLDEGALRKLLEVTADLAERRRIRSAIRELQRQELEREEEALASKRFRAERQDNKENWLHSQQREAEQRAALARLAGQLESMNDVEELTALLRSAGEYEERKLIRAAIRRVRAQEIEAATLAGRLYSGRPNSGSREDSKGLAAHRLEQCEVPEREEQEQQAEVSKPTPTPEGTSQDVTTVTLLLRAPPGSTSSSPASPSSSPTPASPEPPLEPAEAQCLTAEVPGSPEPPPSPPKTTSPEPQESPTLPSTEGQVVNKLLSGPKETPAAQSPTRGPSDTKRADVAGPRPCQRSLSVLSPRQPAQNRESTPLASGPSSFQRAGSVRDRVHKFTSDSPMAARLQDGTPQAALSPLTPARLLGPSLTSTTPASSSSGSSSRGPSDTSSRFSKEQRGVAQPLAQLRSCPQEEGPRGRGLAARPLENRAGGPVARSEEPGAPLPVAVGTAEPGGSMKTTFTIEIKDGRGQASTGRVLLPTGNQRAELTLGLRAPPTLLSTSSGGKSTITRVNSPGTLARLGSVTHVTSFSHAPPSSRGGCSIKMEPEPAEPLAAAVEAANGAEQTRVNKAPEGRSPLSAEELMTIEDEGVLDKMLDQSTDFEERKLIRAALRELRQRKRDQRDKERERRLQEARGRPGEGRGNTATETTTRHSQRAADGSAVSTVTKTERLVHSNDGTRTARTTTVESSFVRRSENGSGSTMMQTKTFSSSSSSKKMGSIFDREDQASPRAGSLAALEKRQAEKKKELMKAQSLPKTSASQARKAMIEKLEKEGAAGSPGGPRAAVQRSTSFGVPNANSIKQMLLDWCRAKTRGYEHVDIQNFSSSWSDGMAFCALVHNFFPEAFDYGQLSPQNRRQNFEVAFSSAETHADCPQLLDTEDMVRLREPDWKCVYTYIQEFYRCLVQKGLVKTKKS
The assay can be described thus: yeast two-hybrid, growth and color on selective media. From the text:
(§1) Independent sequences were transformed into bacteria (DH5 α) from which DNA was subsequently isolated. Next, the DNA was transformed into yeast strain AH109. […] Each independent sequence strain transformed in AH109 was mated with Y187 yeast transformed with each of the three baits. Independent clones which interacted with MK2 and MK2 K93R, but not with empty vector pGBKT7, TPL2, p53, or Lamin, as assayed by their growth on SD/-Ade/-His/-Leu/-Trp and blue color on SD/-Leu/-Trp X-α-GAL, were identified as clones which included DNA inserts encoding specific MK2 interacting proteins (FIG. 9A). […] One protein encoded by an independent DNA sequence characterized was “similar to smoothelin” (STS).

The next assay has as its target MYC-tagged MK2 (UniProt P49137 1-400, limits assumed). The assay can be described thus: cell-based or functional assay.
Assay [2] has as its target T2, TPL2, yeast two-hybrid control bait (yeast, UniProt P04386 1-147; P41279 1-467, limits assumed).
T2 construct: Specificity control bait
Put plainly: yeast two-hybrid, growth on SD/-Ade/-His/-Leu/-Trp and blue color on SD/-Leu/-Trp X-α-GAL.
Description: as §1

Assay [3] concerns the target B4. The assay is described as above.
Description: as §1

Assay [4] addresses B1. Put plainly: yeast two-hybrid, growth and color on selective media.
Description: as §1

Assay [5] concerns the target T1, similar to smoothelin (STS), yeast …. Put plainly: yeast two-hybrid, growth on SD/-Ade/-His/-Leu/-Trp and blue color on SD/-Leu/-Trp X-α-GAL.
Description: as §1

Sequence of MYC-tagged MK2 (P49137 whole entry): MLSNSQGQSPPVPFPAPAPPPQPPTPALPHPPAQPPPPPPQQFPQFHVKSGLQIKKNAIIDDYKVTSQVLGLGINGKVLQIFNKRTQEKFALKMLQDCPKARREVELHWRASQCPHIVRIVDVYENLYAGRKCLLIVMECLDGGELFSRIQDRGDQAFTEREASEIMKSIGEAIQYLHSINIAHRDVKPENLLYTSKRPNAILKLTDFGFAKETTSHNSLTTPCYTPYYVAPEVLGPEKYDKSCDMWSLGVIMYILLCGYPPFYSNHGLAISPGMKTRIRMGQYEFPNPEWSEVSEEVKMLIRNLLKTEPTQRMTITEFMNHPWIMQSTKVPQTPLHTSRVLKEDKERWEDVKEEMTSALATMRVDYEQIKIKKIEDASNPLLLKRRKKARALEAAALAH

With B1, in assay [1], the binding result is given as “no binding”.

Take B2: in the assay with MYC-tagged MK2, the “TNF-α biosynthesis (secreted TNF-α by ELISA) in LPS-stimulated RAW264.7 cells” value turned out to be 1.5 fold and the “basal pHsp 27 levels in HeLa cells (immunoblot, densitometry)” value turned out to be 3 fold.

With B3, the binding result in assay [2], in assay [3] and in assay [4] was “no binding” each time.

In the case of B4, in assay [5], the binding result is on record as “no binding”.

For the molecule B5, the binding result in assay [2], in assay [3] and in assay [4] was “no binding” throughout.
